For assay [1], the target named is T1, animal free recombinant human IL-6 (PeproTech Inc.) (human, UniProt P05231 30-212).
T1 construct: Bought reagent, coated on the ELISA plate; also called interleukin-6
In words: ELISA, antigen coated at 5 ug/mL, HRP anti-human IgG Fc detection. As for the experimental part: (§1) The affinity of each antibody for an antigen was measured by ELISA method. As antigens of each antibody, human CD20/MS4A1 full-length protein, His tag (HEK293) (ACROBiosystems Inc.), recombinant human ErbB2/Her2 Fc chimera (R&D Systems Inc.), chicken egg white-derived lysozyme (Sigma-Aldrich), animal free recombinant human IL-6 (PeproTech Inc.) and interleukin 8 (CXCL8) (Shenandoah Biotechnology, Inc.) were used. Specific operations are as follows. A solution of various antigens diluted to 5 μg/mL with PBS was added to each well of a 96-well plate (Nunc), and the plate was incubated at 4° C. overnight. After removing the solution from each well, 1% BSA/PBS was added, and the plate was incubated at room temperature for 3 hours. The solution was removed from each well, and then the plate washed three times with PBST. An antibody solution was added to each well, and the plate was incubated at room temperature for 15 minutes. The solution was removed from each well, and then the plate washed three times with PBST. A solution of HRP-labeled anti-human IgG Fc antibody (Bethyl Laboratories, Inc.), HRP-labeled goat F(ab′)2 fragment anti-mouse IgG (H+L) (Beckman Coulter, Inc.) or HRP-conjugated streptavidin (Thermo Fisher Scientific Inc.) diluted to 0.3 μg/mL with 1% BSA/PBS was added to each well, and the plate was incubated at room temperature for 1 hour. The solution was removed from each well, and then the plate washed three times with PBST. Chromogenic reaction was performed using KPL TMB (registered trademark) Peroxidase Substrate (SeraCare Life Sciences, Inc.) and the chromogenic reaction was stopped using KPL TMB (registered trademark) Peroxidase Stop Solution (SeraCare Life Sciences, Inc.). Absorbance at 450 nm was measured using a SpectraMax (registered trademark) 190 microplate reader (Molecular Devices, LLC).

For assay [2], the target named is T2, human CD20/MS4A1 full-length protein, His tag (HEK293) (ACROBiosystems Inc.) (human, UniProt P11836 1-297).
T2 construct: mature; Bought reagent, coated on the ELISA plate; also called antigen of rituximab; not shown: His tag
T2 sequence (looked up): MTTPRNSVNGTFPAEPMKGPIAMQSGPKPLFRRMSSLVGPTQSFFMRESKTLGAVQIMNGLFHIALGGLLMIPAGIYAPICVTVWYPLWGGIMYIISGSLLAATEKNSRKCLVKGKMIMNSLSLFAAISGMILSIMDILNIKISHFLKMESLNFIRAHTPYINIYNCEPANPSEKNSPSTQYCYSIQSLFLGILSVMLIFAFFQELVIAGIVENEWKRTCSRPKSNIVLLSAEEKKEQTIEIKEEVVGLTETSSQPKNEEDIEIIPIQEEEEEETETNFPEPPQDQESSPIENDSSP
The assay is described as above. The method, then: as §1

Assay [3] addresses T3, interleukin 8 (CXCL8) (Shenandoah Biotechnology, Inc.) (UniProt P10145 28-99, limits assumed).
T3 construct: Bought reagent, coated on the ELISA plate; also called IL-8
T3 sequence (looked up): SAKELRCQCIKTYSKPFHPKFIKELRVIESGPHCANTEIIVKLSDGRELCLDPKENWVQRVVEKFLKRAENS
The description is as above. The method, then: as §1

In assay [4] the target is T4, recombinant human ErbB2/Her2 Fc chimera (R&D Systems Inc.) (human, UniProt P04626 23-652).
T4 construct: Bought reagent, coated on the ELISA plate; also called antigen of trastuzumab; Fc part of the bought chimera not given
In words: ELISA, antigen coated at 5 ug/mL, biotin-labeled antibody, HRP-streptavidin. As for the experimental part:
as §1
For orientation: In an ELISA, binding on a coated surface is turned into a signal by an enzyme label.

Our source for the EC50 and EC50 ratio values is patent US20230203435A1 (SYSMEX, published 2023).

Changes are numbered by the printed parent chain.

Usually EC50 stands for the midpoint of the concentration-response curve.

B1: anti-IL-6 antibody (mouse/human chimeric antibody), light chain FR3 not substituted (antibody, human IgG1, kappa, V domains shown)
VH: EVQLQQSGPELVKPGASVKMSCKASGYTFTSYVMHWVKQKPGQGLEWIGYINPYNDGTKYNEKFKGKATLTSDKSSSTAYMELSSLTSEDSAVYYCAREGYGNLERDCWGQGTSVTVSS
VL: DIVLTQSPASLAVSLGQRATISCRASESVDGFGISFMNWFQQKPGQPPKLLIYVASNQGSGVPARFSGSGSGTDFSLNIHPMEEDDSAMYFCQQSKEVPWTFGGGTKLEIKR
notes: also called WT; anti-interleukin (IL)-6 antibody
Take B1: in assay [1], the EC50 was 0.041 µg/mL and the EC50 ratio is 1 ratio (EC50 in WT taken as 1.0).

B2: R5 variant of anti-IL-6 antibody (antibody, human IgG1, kappa, V domains shown)
VH: B1 VH
VL: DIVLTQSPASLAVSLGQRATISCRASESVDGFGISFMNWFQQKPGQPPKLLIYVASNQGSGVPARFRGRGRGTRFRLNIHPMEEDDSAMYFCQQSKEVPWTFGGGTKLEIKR
notes: IgG; Light chain positions 63, 65, 67, 70 and 72 (Chothia) are arginine; also called anti-IL-6 antibody R5
B2: in assay [1], the concentration for a half-maximal effect (EC50) turned out to be 0.0327 µg/mL and the EC50 ratio was 1.3 ratio (EC50 in WT taken as 1.0).

B3: R3 variant of rituximab (antibody, human IgG1, kappa, V domains shown)
VH: QVQLQQPGAELVKPGASVKMSCKASGYTFTSYNMHWVKQTPGRGLEWIGAIYPGNGDTSYNQKFKGKATLTADKSSSTAYMQLSSLTSEDSAVYYCARSTYYGGDWYFNVWGAGTTVTVSA
VL: QIVLSQSPAILSASPGEKVTMTCRASSSVSYIHWFQQKPGSSPKPWIYATSNLASGVPVRFRGRGRGTSYSLTISRVEAEDAATYYCQQWTSNPPTFGGGTKLEIKR
notes: IgG; Light chain positions 63, 65 and 67 (Chothia) are arginine; Heavy chain is that of rituximab; also called rituximab R3
B3: in assay [2], the midpoint of the response, the EC50, lay at 1.71 µg/mL and the EC50 ratio is 74.6 ratio (EC50 in WT taken as 1.0).

B4: R5 variant of rituximab (antibody, human IgG1, kappa, V domains shown)
VH: B3 VH
VL: B3 VL with S69R, S71R
notes: IgG; Light chain positions 63, 65, 67, 70 and 72 (Chothia) are arginine; also called rituximab R5
Regarding B4, in assay [2], the EC50 was 0.027 µg/mL and the EC50 ratio is 4710 ratio (EC50 in WT taken as 1.0).

B5: rituximab (mouse/human chimeric antibody), light chain FR3 not substituted (antibody, human IgG1, kappa, V domains shown)
VH: B3 VH
VL: B3 VL with R62S, R64S, R66S
notes: also called WT; rituximab WT
In turn, B5 came in with an EC50 in assay [2] of 127 µg/mL.

B6: R3 variant of anti-IL-8 antibody (antibody, human IgG1, kappa, V domains shown)
VH: EVKLVESGGGLVKPGGSLKLSCAASGFTFNNYAMSWVRQTPEKRLEWVASISSGGNTYYPDSVKGRFTLSRDNARNILYLQMSRLRSEDTAMYYCARDKLRLPNWYFDVWGAGTTVTVSS
VL: DIVLTQSPPSLAVSLGQRATISCKASQSVDYDGDSYMNWYQQKPGQPPKVLIYGASNLESGIPARFRGRGRGTDFTLNIYPVEEEDAATYYCQQSNEDPPTFGGGTKLEIKR
notes: IgG; Light chain positions 63, 65 and 67 (Chothia) are arginine; also called anti-IL-8 antibody R3
Turning to B6, in assay [3], the midpoint of the response, the EC50, lay at 0.269 µg/mL and the EC50 ratio was 1.4 ratio (EC50 in WT taken as 1.0).

B7: R4 variant of anti-IL-8 antibody (antibody, human IgG1, kappa, V domains shown)
VH: B6 VH
VL: B6 VL with D74R
notes: IgG; Light chain positions 63, 65, 67 and 70 (Chothia) are arginine; also called anti-IL-8 antibody R4
Take B7: in assay [3], the midpoint of the response, the EC50, lay at 0.0598 µg/mL and the EC50 ratio was 6.5 ratio (EC50 in WT taken as 1.0).

B8: anti-IL-8 antibody (mouse/human chimeric antibody), light chain FR3 not substituted (antibody, human IgG1, kappa, V domains shown)
VH: B6 VH
VL: B6 VL with R67S, R69S, R71S
notes: also called WT; anti-IL-8 antibody WT
As to B8, in assay [3], the concentration giving a half-maximal response (EC50) was determined as 0.39 µg/mL and the EC50 ratio is 1 ratio (EC50 in WT taken as 1.0).

B9: R3 variant of trastuzumab (antibody, human IgG1, kappa, V domains shown)
VH: not shown
VL: DIQMTQSPSSLSASVGDRVTITCRASQDVNTAVAWYQQKPGKAPKLLIYSASFLYSGVPSRFSGRRRGTRFTLTISSLQPEDFATYYCQQHYTTPPTFGQGTKVEIKR
notes: IgG; Light chain positions 65, 67 and 70 (Chothia) are arginine; Labeled with biotin (Biotin Labeling Kit-NH2) before the ELISA; also called trastuzumab R3
Regarding B9, in assay [4], the EC50 amounted to 0.0252 µg/mL and the EC50 ratio is 2 ratio (EC50 in WT taken as 1.0).

B10: R4 variant of trastuzumab (antibody, human IgG1, kappa, V domains shown)
VH: not shown
VL: B9 VL with S63R
notes: IgG; Light chain positions 63, 65, 67 and 70 (Chothia) are arginine; Labeled with biotin (Biotin Labeling Kit-NH2) before the ELISA; also called trastuzumab R4
As for B10, in assay [4], the 50% effective concentration (EC50) stood at 0.0342 µg/mL and the EC50 ratio is 1.5 ratio (EC50 in WT taken as 1.0).
